Reference: patent US20200024360A1 (Janssen / Centocor, published 2020)

T1: Cynomolgous monkey PSMA, full length (Macaca fascicularis, UniProt Q04609 1-750 (human entry))
T1 construct: On transfected HEK293F cells; also called cyno PSMA; EHH56646.1
T1 chain: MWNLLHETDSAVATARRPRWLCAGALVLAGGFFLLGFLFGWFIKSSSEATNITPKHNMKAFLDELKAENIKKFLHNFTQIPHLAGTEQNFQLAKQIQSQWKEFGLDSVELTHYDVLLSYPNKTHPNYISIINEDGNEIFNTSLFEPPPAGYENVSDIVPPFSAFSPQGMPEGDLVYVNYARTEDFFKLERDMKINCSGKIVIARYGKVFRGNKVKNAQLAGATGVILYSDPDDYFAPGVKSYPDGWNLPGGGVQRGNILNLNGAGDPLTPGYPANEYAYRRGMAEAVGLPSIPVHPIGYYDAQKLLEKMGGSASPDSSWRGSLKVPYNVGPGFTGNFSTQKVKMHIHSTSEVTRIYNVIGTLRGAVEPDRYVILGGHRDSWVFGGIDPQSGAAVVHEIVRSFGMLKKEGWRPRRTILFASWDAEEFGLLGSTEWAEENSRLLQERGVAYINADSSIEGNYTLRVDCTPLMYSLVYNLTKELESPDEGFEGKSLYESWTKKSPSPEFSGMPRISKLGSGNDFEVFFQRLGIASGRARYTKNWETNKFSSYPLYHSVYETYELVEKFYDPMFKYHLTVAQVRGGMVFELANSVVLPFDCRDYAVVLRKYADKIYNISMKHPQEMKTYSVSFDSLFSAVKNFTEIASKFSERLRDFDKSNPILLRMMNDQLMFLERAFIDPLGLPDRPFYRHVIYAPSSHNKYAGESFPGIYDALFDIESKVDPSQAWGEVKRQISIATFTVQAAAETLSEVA

B1: PS3B27 (bispecific antibody, human IgG4 S228P, kappa, lambda, F234A L235A)
heavy 1: not shown
light 1: not shown
heavy 2: EVQLVESGGGLVQPGGSLRLSCAASGFTFNTYAMNWVRQAPGKGLEWVARIRSKYNNYATYYAASVKGRFTISRDDSKNSLYLQMNSLKTEDTAVYYCARHGNFGNSYVSWFAYWGQGTLVTVSSASTKGPSVFPLAPCSRSTSESTAALGCLVKDYFPEPVTVSWNSGALTSGVHTFPAVLQSSGLYSLSSVVTVPSSSLGTKTYTCNVDHKPSNTKVDKRVESKYGPPCPPCPAPEAAGGPSVFLFPPKPKDTLMISRTPEVTCVVVDVSQEDPEVQFNWYVDGVEVHNAKTKPREEQFNSTYRVVSVLTVLHQDWLNGKEYKCKVSNKGLPSSIEKTISKAKGQPREPQVYTLPPSQEEMTKNQVSLTCLVKGFYPSDIAVEWESNGQPENNYKTTPPVLDSDGSFLLYSKLTVDKSRWQEGNVFSCSVMHEALHNHYTQKSLSLSLGK
light 2: QTVVTQEPSLTVSPGGTVTLTCRSSTGAVTTSNYANWVQQKPGQAPRGLIGGTNKRAPGTPARFSGSLLGGKAALTLSGVQPEDEAEYYCALWYSNLWVFGGGTKLTVLGQPKAAPSVTLFPPSSEELQANKATLVCLISDFYPGAVTVAWKADSSPVKAGVETTTPSKQSNNKYAASSYLSLTPEQWKSHRSYSCQVTHEGSTVEKTVAPTECS
notes: IgG4 PAA; PSMA arm chains first, then CD3 arm (F405L, R409K); also called PSMB127 x CD3B219; PS2B27
B2: PS3B25 (bispecific antibody, human IgG4 S228P, kappa, lambda, F234A L235A)
heavy 1: not shown
light 1: not shown
heavy 2: B1 heavy 2
light 2: B1 light 2
notes: IgG4 PAA; also called PSMB87 x CD3B219

Experiments:
[1] = biological target: T2, human PSMA (prostate specific membrane antigen), full length (human, UniProt Q04609 1-750); test: flow cytometry cell binding assay, bispecific antibody titrated on LNCaP cells (human PSMA)
T2 construct: On LNCaP or C4-2B cells (endogenous) or transduced HEK293F cells; also called FOLH1_HUMAN; hPSMA
Experimental: (§1) PSMA×CD3 bispecific antibodies were tested for binding to PSMA positive cell lines LNCAP, human PSMA-HEK, Chimpanzee-PSMA-HEK and Cynomolgous monkey PSMA-HEK. To assess the binding capabilities of the PSMA bispecific antibodies, the cell-binding assay was utilized (described previously). Briefly, PSMA expressing tumor cells are bound by bispecific antibodies at known concentrations and the bound antibody is detected by an anti-human kappa light chain PE conjugated detection reagent (Invitrogen). The Mean Fluorescents Intensity (MFI) is the measure of bound bispecific antibody. The MFI is converted to a relative EC₅₀. EC₅₀ is a commonly used dose-response curve, where the half maximal effective concentration or the EC₅₀ point is defined as the inflection point of the curve. EC₅₀ s were determined by measuring cell bound bispecific and known concentrations. […] The dose response curves were then diluted down to that of background or no bispecific binding. The inflection point of this curve reflects the EC₅₀ point. The calculated EC₅₀ is determined by taking the ug/ml amount of bispecific antibody at the EC₅₀ point and converting it to a molarity value based on the MW of the bispecific antibody. Bispecific antibodies were normalized for protein concentration and then incubated with the same number of cells expressing either human or cyno PSMA. […]

[2] = biological target: T1, Cynomolgous monkey PSMA, full length; test: flow cytometry, bispecific antibody titrated on cyno PSMA (PSMG5) HEK cells, anti-human kappa light chain PE
Experimental: as §1

Binder	EC50 (read off the curve) [1]	binding result [2]
B1	~7 nM	–
B2	–	binds
